Measurements as given in patent US20250326797A1, “PROTEIN-PROTEIN INTERACTION MODULATORS AND METHODS FOR DESIGN THEREOF” (RAMOT AT TEL AVIV UNIVERSITY LTD., priority 2022, published 2025).
Blank lines part the entries; values can stand above or below the molecule they belong to.

Assays:
[1] = molecular target: T1, CaN PxIxIT binding site (CaNA, catalytic subunit of calcineurin) (Homo sapiens, UniProt Q08209, L343A/M347D/Y341S); test: Fluorescence Polarization (FP) competition assay with FITC-labeled PVIVIT peptide; conditions: for ability to compete with PVIVIT for CaN binding: result in words; for IC50: competition with 100 nM FITC-labeled PVIVIT peptide, 4 uM CaNA, single site inhibition model, read-out: IC50: half maximal inhibitory concentration
T1 construct: GST; made in house; host or cells: E. coli BL21
Procedure: (§1) Fluorescence Polarization (FP) competition assay. Fluorescence measurements were performed on samples arrayed in a 96-well plate using Biotek HybridHI reader equipped with a polarized optic system. All measurements were done in triplicate. […] Experimental polarization data from simple and competitive binding experiments were fitted using GraphPad Prism7, with error bars representing standard deviation.
Selected peptides were synthesized and their ability to specifically bind the CaN PxIxIT binding site was evaluated by FP competition assay.
(§2) Polarization levels were read and normalized values were fitted to a single site model.
The above peptides are synthesized and their ability to specifically bind the CaN PxIxIT binding site is evaluated by FP competition assay. […] After fitting the polarization values to a single site inhibition model, the corresponding IC50 values are extracted.

[2] = molecular target: T2, Catalytic subunit of calcineurin (CaNA), residues 2-347 with substitutions Y341S, L343A and M347D (UniProt Q08209 2-347); test: FP competition assay against FITC-PVIVIT (100 nM) on CaNA (4 uM); single site inhibition fit
T2 construct: range 2-347; Expressed as a cleavable GST fusion and purified on a GST column and by size exclusion; The microarray used GST-tagged CaN; also called Cn
Procedure: as §1
(§3) Selected peptides were synthesized and their ability to specifically bind the CaN PxIxIT binding site was evaluated by FP competition assay. […] After fitting the polarization values to a single site inhibition model, the corresponding IC₅₀ values were extracted and reported in Table 2.

[3] = molecular target: T2, Catalytic subunit of calcineurin …; test: fluorescence polarization competition; unlabeled peptide titrated against 100 nM FITC-labeled PVIVIT bound to 4 uM CaNA
Procedure: as §1, §3, §2

[4] = molecular target: T2, Catalytic subunit of calcineurin …; test: FP competition assay against FITC-PVIVIT on CaNA
Procedure: as §1, §3

T1 sequence (Q08209 2-347 Y341S/L343A/M347D): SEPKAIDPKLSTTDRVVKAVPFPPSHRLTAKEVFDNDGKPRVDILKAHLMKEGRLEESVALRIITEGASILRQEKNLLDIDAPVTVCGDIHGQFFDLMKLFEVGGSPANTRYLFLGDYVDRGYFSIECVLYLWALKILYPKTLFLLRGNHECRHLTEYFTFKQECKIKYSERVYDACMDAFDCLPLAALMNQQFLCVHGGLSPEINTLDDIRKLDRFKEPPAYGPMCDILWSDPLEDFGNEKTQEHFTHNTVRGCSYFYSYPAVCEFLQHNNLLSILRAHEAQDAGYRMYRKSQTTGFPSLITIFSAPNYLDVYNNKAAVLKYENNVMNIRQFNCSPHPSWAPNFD
T2 sequence (Q08209 2-347 Y341S/L343A/M347D): as above

Molecule: Ac-AAGAGVGIVITVTEAE-NH2 [rbmAKAP79]
ability to compete with PVIVIT for CaN binding [1]: successfully competed with PVIVIT binding

IC50 [1]: 14 µM
IC50 relative to closest natural counterpart (human TRESK fragment) ([1]; rbmTRESK vs natural TRESK fragment): almost four times lower
Molecule: Ac-ADEAIPEIVISKPEEP-NH2 [rbmTRESK]

IC50 [1]: 54 µM
Molecule: Ac-ADEAVPQIIISAEELP-NH2 [TRESK, reference compound]

Molecule: Ac-ADGAGVGIVITVTEAE-NH2 [rbmAKAP79_2]
ability to compete with PVIVIT for CaN binding [1]: successfully competed with PVIVIT binding

IC50 [2]: 79 µM
B1: rbmRIPOR2 (designed binder)
peptide: Ac-ASVSNPEITVTSAETE-NH2

IC50 [2]: 57 µM
B2: rbmAKAP79 (designed binder)
peptide: Ac-AAGAGVGIVITVTEAE-NH2

IC50 [2]: 69 µM
B3: rbmAKAP79_2 (designed binder)
peptide: Ac-ADGAGVGIVITVTEAE-NH2

IC50 (read off the curve) [3]: ~10 µM
fold lower IC50 than the CaN-binding fragment of human TRESK protein (SEQ ID NO: 3) [4]: ~4 fold
B4: rbmTRESK (designed binder)
peptide: Ac-ADEAIPEIVISKPEEP-NH2

IC50 [2]: 200 µM
B5: rbmRIPOR2_2 (designed binder)
peptide: Ac-HVSSSPRITITPTQHR-NH2

IC50 [2]: 60 µM
B6: rbmTRESK_2 (designed binder)
peptide: Ac-ADEAIPEITITSAELP-NH2
